Consider 39 variants from the Human Domainome abundance scans (Beltran et al. 2025).

The labels stand for the following.
B1: Serine/threonine-protein kinase A-Raf, residues 21 to 89; numbered along this chain, P10398 (parent)
chain: VKVYLPNKQRTVVTVRDGMSVYDSLDKALKVRGLNQDCCVVYRLIKGRKTVTAWDTAIAPLDGEELIVE

± gives the uncertainty stated by the source.

This series covers variants of B1. Put plainly: abundance fitness (aPCA) (normalised: wild type 0, dead -1); higher = more abundant; growth selection in yeast, the domain comes from the species named. To be noted: Homo sapiens.
For VKVYLPNKQRTVVTVRDGMSVYDSLDKALKVRGLNQDCCVVYRLIKGRKTVTYWDTAIAPLDGEELIVE [A53Y], the abundance fitness is -0.377 ± 0.15.
For the variant VKVYLPNKQRTVVTVRDGFSVYDSLDKALKVRGLNQDCCVVYRLIKGRKTVTAWDTAIAPLDGEELIVE [M19F], the abundance fitness was -0.274 ± 0.1.
The same measure for VKVYLPNKQRTVVTVRDGMSVYDSLDKALKVRGLNQDCCVKYRLIKGRKTVTAWDTAIAPLDGEELIVE [V41K]: -0.685 ± 0.15; for VKVYLPNKQRTVVTVRDGMSVYDSLDKALKVRGLNQDCCVVYRLIKGRKTVTAGDTAIAPLDGEELIVE [W54G]: -1.03 ± 0.14; for VKVYLPNKQRTVVTVRDGMSVYDSLDKALKVRGLNQDCCVVYRLIKGRKTVTATDTAIAPLDGEELIVE [W54T]: -0.797 ± 0.14.
The same measure for VKVYLPNKQRTVVTGRDGMSVYDSLDKALKVRGLNQDCCVVYRLIKGRKTVTAWDTAIAPLDGEELIVE [V15G]: -0.17 ± 0.036.
In the case of VKVYLPNKQRTVVTVRDGMSVYDSLDKALKVRGLNQDCCVVYRLIKGRKTVTAWDTAIGPLDGEELIVE [A59G], the abundance fitness stood at 0.017 ± 0.049.
The result for VKVYLPNKQRTVVTVRDGMSVYDSLDKALKVRGLNQDCCVVYRLIKGRKTVTAWDTAIEPLDGEELIVE [A59E] reads -0.068 ± 0.067.
The same measure for VKVYLPNKQRTVVTVRDGMSVYDSLDKALKVRGLNQDCCVVYRLIKGRKTVTAWDTAITPLDGEELIVE [A59T]: 0.054 ± 0.058; for VKVYLPNKQRTVVTVRDGMSVYDSLDKALKVRGLNQDCCVVYRLIKGRKTVTAWDTAIWPLDGEELIVE [A59W]: -0.14 ± 0.065.
The result for VKVYLPNKQRTVVTVRDGMSVYDSLDKALPVRGLNQDCCVVYRLIKGRKTVTAWDTAIAPLDGEELIVE [K30P] reads -0.957 ± 0.19.
Consider VKCYLPNKQRTVVTVRDGMSVYDSLDKALKVRGLNQDCCVVYRLIKGRKTVTAWDTAIAPLDGEELIVE [V3C], for which the abundance fitness is -0.274 ± 0.12.
For VKAYLPNKQRTVVTVRDGMSVYDSLDKALKVRGLNQDCCVVYRLIKGRKTVTAWDTAIAPLDGEELIVE [V3A], the abundance fitness was -0.672 ± 0.086.
The same measure for VKVYLPNKQRDVVTVRDGMSVYDSLDKALKVRGLNQDCCVVYRLIKGRKTVTAWDTAIAPLDGEELIVE [T11D]: -0.233 ± 0.13; for VKVYLPNKQRQVVTVRDGMSVYDSLDKALKVRGLNQDCCVVYRLIKGRKTVTAWDTAIAPLDGEELIVE [T11Q]: -0.1 ± 0.057; for VKVYLPNKQRGVVTVRDGMSVYDSLDKALKVRGLNQDCCVVYRLIKGRKTVTAWDTAIAPLDGEELIVE [T11G]: -0.919 ± 0.12.
The result for VKVYLPNKQRSVVTVRDGMSVYDSLDKALKVRGLNQDCCVVYRLIKGRKTVTAWDTAIAPLDGEELIVE [T11S] reads -0.582 ± 0.066; that for VKVYLPNKQRRVVTVRDGMSVYDSLDKALKVRGLNQDCCVVYRLIKGRKTVTAWDTAIAPLDGEELIVE [T11R], -0.652 ± 0.063.
The same measure for VKVYLPNKQRVVVTVRDGMSVYDSLDKALKVRGLNQDCCVVYRLIKGRKTVTAWDTAIAPLDGEELIVE [T11V]: 0.038 ± 0.049.
As to VKVYLPNKQRTVVTVRDGMSVYDSLDKALKVRGLNQDCCVVYRLIKGRKTVTAWDTAIAPLDMEELIVE [G63M], the abundance fitness is -0.269 ± 0.1.
The same measure for VKVYLPNKQRTVVTVRDGMSVYDSLDKALKVRGLNQDCCVVYRLIKGRKTVTAWDTAIAPLDEEELIVE [G63E]: -0.486 ± 0.094; for VKVYLPNKQRTVVTVRDGMSMYDSLDKALKVRGLNQDCCVVYRLIKGRKTVTAWDTAIAPLDGEELIVE [V21M]: -0.207 ± 0.09; for VKVYLPNKQRTVVTVRDGMSVYDSLDKALKVRGLNQDCCVVYRMIKGRKTVTAWDTAIAPLDGEELIVE [L44M]: 0.069 ± 0.072.
The result for VKVYLPNKQRTVVTVRDGMSVYDSLDKALKVRGLNQDCCVVYRVIKGRKTVTAWDTAIAPLDGEELIVE [L44V] reads -0.112 ± 0.052; that for VKVYLPNKQRTVVTVRDGMSVYDSLDKALKVRGLNQDCCVVYREIKGRKTVTAWDTAIAPLDGEELIVE [L44E], -0.279 ± 0.08; that for VKVYLPNKQRTVITVRDGMSVYDSLDKALKVRGLNQDCCVVYRLIKGRKTVTAWDTAIAPLDGEELIVE [V13I], 0.039 ± 0.064.
The same measure for VKVYLPNKQRTVCTVRDGMSVYDSLDKALKVRGLNQDCCVVYRLIKGRKTVTAWDTAIAPLDGEELIVE [V13C]: -0.206 ± 0.074; for VKVYLPNKQRTVVTVRDGMSVYDSLDKALKVRGLNQDCPVVYRLIKGRKTVTAWDTAIAPLDGEELIVE [C39P]: -0.805 ± 0.2.
With VKVYLPNKQRTVVTVRDGMSVYDSLDKALKVRGLNQDCAVVYRLIKGRKTVTAWDTAIAPLDGEELIVE [C39A], the abundance fitness was -0.504 ± 0.1.
Turning to VKVYLPNKQRTVVTVRDGMSVYTSLDKALKVRGLNQDCCVVYRLIKGRKTVTAWDTAIAPLDGEELIVE [D23T], the abundance fitness was -0.087 ± 0.055.
On to VKVYLPNKQRTVVTVRDGMSVYDSLDKALKVRGLNQDCCVVYALIKGRKTVTAWDTAIAPLDGEELIVE [R43A], for which the abundance fitness was -0.721 ± 0.14.
Turning to VKVYLPNKQRTVVTVRDGMSVYDSLDKALKVRGLNQDCCVVYVLIKGRKTVTAWDTAIAPLDGEELIVE [R43V], the abundance fitness was -0.703 ± 0.096.
The result for VKVYLPNKQRTVVTVRDGMSVYDSLDKALKVRGLNQDCCVVYDLIKGRKTVTAWDTAIAPLDGEELIVE [R43D] reads -0.939 ± 0.43.
The same measure for VKVYLPNKQRTVVTVRDGMQVYDSLDKALKVRGLNQDCCVVYRLIKGRKTVTAWDTAIAPLDGEELIVE [S20Q]: -0.799 ± 0.15; for VKVYLPNKQRTVVTVRDGMSVYDSLDKALKVRGLNQDCCVVERLIKGRKTVTAWDTAIAPLDGEELIVE [Y42E]: -1.02 ± 0.26.
VKVGLPNKQRTVVTVRDGMSVYDSLDKALKVRGLNQDCCVVYRLIKGRKTVTAWDTAIAPLDGEELIVE [Y4G]: the abundance fitness is -0.663 ± 0.069.
With VKVYLPNKQRTVVTVRDGMSVYDSLDKALKVRNLNQDCCVVYRLIKGRKTVTAWDTAIAPLDGEELIVE [G33N], the abundance fitness was -0.473 ± 0.14.
Consider VKVYLPNKQRTVVTVRDGMSVYDSLDKALKVRQLNQDCCVVYRLIKGRKTVTAWDTAIAPLDGEELIVE [G33Q], for which the abundance fitness was -0.576 ± 0.12.
Consider VKVYLPNKQRTVVTVRDGMSVYDSLDKALKVRMLNQDCCVVYRLIKGRKTVTAWDTAIAPLDGEELIVE [G33M], for which the abundance fitness was -0.037 ± 0.091.
